Assay results taken from US6544548B1, “Keratin-based powders and hydrogel for pharmaceutical applications” (Keraplast Technologies, Ltd., priority 1999, dated 2003).

Key:
Assay type in all cases: physicochemical
[1] = Loading of acetaminophen into keratin tablets (tablet disintegrated in water, HPLC); settings: acetaminophen bound to H2O2-oxidized keratin, 500 mg tablets
Method: Evaluation of the loading of acetaminophen was accomplished by disintegrating a single tablet into a known volume of water over a one week period at room temperature. In addition, that samples were sonicated for 90 minutes prior to sampling. A sample of the solution was withdrawn and analyzed by HPLC.

[2] = Dissolution test (USP rotating paddle) of drug-loaded oxidized keratin tablets in simulated gastric fluid; settings: 500 mg tablets of drug bound to H2O2-oxidized keratin, 37 C
Method: Dissolution tests are performed according to the standard United States Pharmacopoeia (USP) rotating paddle method. In this method, the volume of the dissolution medium is fixed and agitation is provided under defined conditions by the stainless steel paddle. A 1L volume of purified water or simulated gastric fluid (Lot. No. 76H9312, Sigma-Aldrich, St. Louis, Mo.) was used at 37° C.±0.5° C. The temperature of the dissolution medium was maintained at 37° C. by immersing the dissolution flask in a water bath. A cover was used on the system to avoid water loss through evaporation. […]
During the test, small volumes of sample were withdrawn at various time points, for example, every 20 minutes within the first hour (including a 0 time point) and every hour after that for 8 hours. […] High-performance liquid chromatography (HPLC) was performed on the samples and the amount released from the dosage form calculated based on a calibration curve generated from solutions with known concentrations of the compound of interest.
Tablet samples that incorporated the vasoconstrictor norephedrine were prepared by binding the drug to oxidized keratin in an ion exchange step. […] This was accomplished by dissolving a measured amount of norephedrine into ethanol, adding 5 g of oxidized keratin and heating to reflux for 2 hours, followed by stirring at room temperature for 24 hours. […]

[3] = Dissolution test (USP rotating paddle) of albumin from keratin tablets and capsules
Method: Dissolution tests are performed according to the standard United States Pharmacopoeia (USP) rotating paddle method. In this method, the volume of the dissolution medium is fixed and agitation is provided under defined conditions by the stainless steel paddle. A 1L volume of purified water or simulated gastric fluid (Lot. No. 76H9312, Sigma-Aldrich, St. Louis, Mo.) was used at 37° C.±0.5° C. The temperature of the dissolution medium was maintained at 37° C. by immersing the dissolution flask in a water bath. A cover was used on the system to avoid water loss through evaporation. After the temperature equilibrated, the samples were allowed to sink to the bottom of the vessel before rotation of the paddle. Rotation speed was kept constant at 50 rpm.
During the test, small volumes of sample were withdrawn at various time points, for example, every 20 minutes within the first hour (including a 0 time point) and every hour after that for 8 hours. Samples were taken from a precise point in the dissolution flask, halfway between the surface of the dissolution medium and the top of the rotating paddle, and not less than 10 mm from the wall of the vessel. The volume withdrawn during sampling was replaced with an equal volume of media, pre-warmed to 37° C. High-performance liquid chromatography (HPLC) was performed on the samples and the amount released from the dosage form calculated based on a calibration curve generated from solutions with known concentrations of the compound of interest.
Samples containing albumin were made in tablet and capsule forms. Tablets were prepared by co-grinding a mixture of 80/20 dry keratin absorbent powder/bovine albumin. The keratin absorbent powder was prepared as described in Section VI. B supra, and the albumin was purchased from Sigma Chemical Co., St. Louis, Mo. (Lot No. 69H1257, Fraction V, 96% purity). The solid mixture was further homogenized by shaking in a closed container. Samples of 500 mg of the powder mixture were made into tablets using a pellet press at 30,000 psi (400 mg keratin, 100 mg albumin). The dissolution profile of these tablets was measured by the rotating paddle method.
Albumin capsules were prepared by dissolving 2 g of albumin in 200 g of deionized water. The albumin solution was added to 8 g of absorbent keratin powder to form a hydrogel. The hydrogel was thoroughly mixed and poured into petri dishes. The water was removed under vacuum at room temperature. After drying for approximately 36 hours, the resulting solid was ground using a mortar and pestle. 400 mg of the ground keratin/albumin powder (320 mg keratin/80 mg albumin) was placed into each of several two-part gelatin capsules (No. 0, Eli Lilly and Co., Indianapolis, Ind.). The dissolution profile of these tablets was measured using the rotating paddle method.

Row | Molecule | loading level in keratin tablets [1] | time over which bound drug is released [2] [h] | release of albumin, water versus gastric fluid, compared with tablets ([3]; gelatin capsules (320 mg keratin/80 mg albumin, intimately mixed via hydrogel)) | amount of albumin released over an equivalent time period, capsules versus tablets ([3]; gelatin capsules, intimately mixed via hydrogel) | disintegration and release of albumin ([3]; keratin tablets (400 mg keratin, 100 mg albumin, mechanically mixed), purified water, 37 C) | equilibrium amount of albumin released, gastric fluid versus water ([3]; keratin tablets, simulated gastric fluid) | release of albumin ([3]; keratin tablets, simulated gastric fluid, 37 C)
1 | CC(=O)Nc1ccc(O)cc1 [acetaminophen, 4-Acetaminophenol] | low | 5 |  |  |  |  | 
2 | CC(N)C(O)c1ccccc1 (centres unmarked) [norephedrine, Phenylpropanolamine] |  | 2 |  |  |  |  | 
3 | albumin: bovine albumin (Sigma, Fraction V, 96% purity) formulated with keratin absorbent powder as tablets or gelatin capsules |  |  | identical trend | much less material was released | almost immediate and complete | significantly lower | immediate
